Data as given in US20210032313A1 (Daiichi Sankyo, published 2021).

T1: KLK12 (human, UniProt Q9UKR0)
T1 construct: commercial enzyme (R&D Systems, 3095-SE); 0.1 µg/mL in the assay; substrate Boc-Val-Pro-Arg-AMC 100 µM; also called Human KLK12; hKLK12
T1 sequence (protease, looked up): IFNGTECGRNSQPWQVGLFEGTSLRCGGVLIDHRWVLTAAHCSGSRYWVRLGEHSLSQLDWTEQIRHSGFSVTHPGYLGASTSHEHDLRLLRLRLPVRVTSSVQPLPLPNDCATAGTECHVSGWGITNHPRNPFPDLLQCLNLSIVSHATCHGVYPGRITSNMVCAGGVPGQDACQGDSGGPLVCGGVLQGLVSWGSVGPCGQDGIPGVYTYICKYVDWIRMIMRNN


Tests used:
[1] = target: T2, KLK4 (human, UniProt Q9Y5K2); assay: fluorogenic peptide substrate cleavage, 1 µM inhibitor
T2 construct: commercial enzyme (R&D Systems, 1719-SE); 1 µg/mL in the assay; substrate Boc-Val-Pro-Arg-AMC 100 µM; also called Human KLK4; hKLK4
Experimental: FIG. 3F includes graphs to evaluate the cross-reactivity of each inhibitory peptide with proteases, using the degradation of a peptide substrate as an index. For evaluating the Human KLK1 inhibitory activity, hKLK1 (R&D Systems, Inc., 2337-SE) with a final concentration of 0.1 μg/mL and a substrate peptide Pro-Phe-Arg-MCA (PEPTIDE […], INC., 3096-v) with a final concentration of 100 μM were used. For evaluating the Human KLK2 inhibitory activity, hKLK2 (R&D Systems, Inc., 4104-SE) with a final concentration of 2 μg/mL and a substrate peptide Pro-Phe-Arg-MCA (PEPTIDE […], INC., 3096-v) with a final concentration of 100 μM were used. For evaluating the Human KLK4 inhibitory activity, hKLK4 (R&D Systems, Inc., 1719-SE) with a final concentration of 1 μg/mL and a substrate peptide Boc-Val-Pro-Arg-AMC (R&D Systems, Inc., ES011) with a final concentration of 100 μM were used.
(§1) The specificities for other proteases were evaluated using the degradation of a substrate peptide as an index. As in the method described in (3-1), 25 μL each of a protease and a sample diluted with an assay buffer were mixed (to a final concentration of sample of 1 μM), followed by a reaction at 37° C. for 20 minutes. Thereafter, 50 μL of a substrate diluted with an assay buffer was added thereto, and the fluorescence signal was measured using Enspire (PerkinElmer). An assay buffer (50 mM Tris, 150 mM NaCl, pH 8.0) was used for the evaluation of the protease activity, and a PROTEOSAVE® SS96F black plate (Sumitomo Bakelite Co., Ltd.) was used for the reaction and the measurement. The combinations of the protease and the substrate used for the evaluation of the specificity were as follows.

[2] = target: T1, KLK12; assay: as above
Experimental: FIG. 3G includes graphs to evaluate the cross-reactivity of each inhibitory peptide with proteases, using the degradation of a peptide substrate as an index. For evaluating the Human KLK7 inhibitory activity, hKLK7 with a final concentration of 1 μg/mL and a substrate peptide Mca-Arg-Pro-Lys-Pro-Val-Glu-Nval-Trp-Arg-Lys (Dnp)-NH₂ (R&D Systems, Inc., ES002) with a final concentration of 20 μM were used. For evaluating the Human KLK8 inhibitory activity, hKLK8 (UniProt: 060259, prepared by the inventors) with a final concentration of 5 nM and a substrate peptide Boc-Val-Pro-Arg-AMC (R&D Systems, Inc., ES011) with a final concentration of 100 μM were used. For evaluating the Human KLK12 inhibitory activity, hKLK12 (R&D Systems, Inc., 3095-SE) with a final concentration of 0.1 μg/mL and a substrate peptide Boc-Val-Pro-Arg-AMC (R&D Systems, Inc., ES011) with a final concentration of 100 μM were used.
as §1

T2 sequence (Q9Y5K2 31-254 limits assumed): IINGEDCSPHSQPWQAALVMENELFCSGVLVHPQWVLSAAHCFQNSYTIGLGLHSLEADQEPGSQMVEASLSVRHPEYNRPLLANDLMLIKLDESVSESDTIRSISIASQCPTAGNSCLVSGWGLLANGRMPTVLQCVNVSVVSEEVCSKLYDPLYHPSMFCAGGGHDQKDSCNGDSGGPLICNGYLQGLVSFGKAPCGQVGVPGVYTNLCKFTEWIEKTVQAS

Binder | binding result [1] | binding result [2]
KLK5/KLK14 inhibitory peptide K51069 (SPINK2 mutant peptide made in E. coli) GPQFGLFSKYRTPNCSQVVETYCNRDYDPVCGSDMSTYANECTLCMKIREGGHNIKIIRNGPCGG | binds | binds
KLK5/KLK14 inhibitory peptide K50015 (SPINK2 mutant peptide made in E. coli) GPQFGLFSKYRTPNCYDTTTHYCSREYDPVCGSDMSTYANECTLCMKIREGGHNIKIIRNGPCGG | binds | binds
